Data taken from PMC4222368, “A human mitochondrial poly(A) polymerase mutation reveals the complexities of post-transcriptional mitochondrial gene expression” (Human Molecular Genetics, 2014).
Where a chain is given by its changes, count along the chain named. Numbers in names are those of the source.

B1: human mitochondrial poly(A) polymerase (mtPAP), wild type, residues 44-538 (enzyme, UniProt Q9NVV4 44-538, looked up)
chain: EQPSGSVETGFEDKIPKRRFSEMQNERREQAQRTVLIHCPEKISENKFLKYLSQFGPINNHFFYESFGLYAVVEFCQKESIGSLQNGTHTPSTAMETAIPFRSRFFNLKLKNQTSERSRVRSSNQLPRSNKQLFELLCYAESIDDQLNTLLKEFQLTEENTKLRYLTCSLIEDMAAAYFPDCIVRPFGSSVNTFGKLGCDLDMFLDLDETRNLSAHKISGNFLMEFQVKNVPSERIATQKILSVLGECLDHFGPGCVGVQKILNARCPLVRFSHQASGFQCDLTTNNRIALTSSELLYIYGALDSRVRALVFSVRCWARAHSLTSSIPGAWITNFSLTMMVIFFLQRRSPPILPTLDSLKTLADAEDKCVIEGNNCTFVRDLSRIKPSQNTETLELLLKEFFEYFGNFAFDKNSINIRQGREQNKPDSSPLYIQNPFETSLNISKNVSQSQLQKFVDLARESAWILQQEDTDRPSISSNRPWGLVSLLLPSAPNR
notes: human mitochondrial poly(A) polymerase (MTPAP, formerly PAPD1), residues 44-538, in pET28a; also called wild-type mtPAP; WT
B2: human mitochondrial poly(A) polymerase (mtPAP), p.N478D mutant, residues 44-538 (enzyme, UniProt Q9NVV4 44-538, looked up)
chain: B1 chain with N435D
notes: human mitochondrial poly(A) polymerase (MTPAP), residues 44-538, in pET28a, with the patient mutation p.N478D (c.1432A>G) made with the QuikChange kit; The mutation occurs in patients (spastic ataxia with optic atrophy); also called p.N478D mtPAP; mutant mtPAP

Target: the molecule itself
Experiment: SEC; gel filtration analysis of wild-type and mutant mtPAP isolated to electrophoretic purity

Protein	stoichiometry N
B1	2
B2	2
